System: TAT-mMDH-eGFP fusion protein

## mitochondrial processing peptidases in the matrix contents of rat liver mitochondria
  cleavage of the mMDH signal sequence after incubation with mitochondrial matrix contents (gel): The matrix signal peptidase progressively cleaved the mMDH signal sequence at two sites yielding two cleavage products of an estimated molecular mass of 32 kDa and 28.9 kDa

Reference: patent US8735341
